Reference: publication PMC9687537

Molecular target: DYNC2H1 [human (endogenous in RPE1)]
Assay: GFP-trap purification, TMT-labelling and mass spectrometry
Settings: RPE1 WDR34 KO cell lines expressing GFP proteins, serum-starved for 24 h; read off a plot

Substance	ratio to parent
GFP–WDR34-WT mutant G393S [human] / DYNC2H1 [human (endogenous in RPE1)] chain 1 G393S	0.3
GFP–WDR34-WT mutant A341V [human] / DYNC2H1 [human (endogenous in RPE1)] chain 1 A341V	2
GFP–WDR34-WT mutant K436R [human] / DYNC2H1 [human (endogenous in RPE1)] chain 1 K436R	2
GFP–WDR34-WT mutant A22V [human] / DYNC2H1 [human (endogenous in RPE1)] chain 1 A22V	0.93
GFP–WDR34-WT mutant R206C [human] / DYNC2H1 [human (endogenous in RPE1)] chain 1 R206C	2.7
GFP–WDR34-WT mutant R182W [human] / DYNC2H1 [human (endogenous in RPE1)] chain 1 R182W	2
GFP–WDR34-WT mutant P390L [human] / DYNC2H1 [human (endogenous in RPE1)] chain 1 P390L	1.6
GFP–WDR34-WT mutant C148F [human] / DYNC2H1 [human (endogenous in RPE1)] chain 1 C148F	0.55

Next, values leading:

ratio to parent	Substance
0.45	GFP–WDR34-WT mutant S410I [human] / DYNC2H1 [human (endogenous in RPE1)] chain 1 S410I
0.22	GFP–WDR34-WT mutant T354M [human] / DYNC2H1 [human (endogenous in RPE1)] chain 1 T354M
0.93	GFP–WDR34-WT mutant R447W [human] / DYNC2H1 [human (endogenous in RPE1)] chain 1 R447W
0.62	GFP–WDR34-WT mutant R447Q [human] / DYNC2H1 [human (endogenous in RPE1)] chain 1 R447Q
